Reference: the NTF2 design screens of Basanta et al. (2020)

Assay: protease stability score; higher = more stable; yeast display proteolysis, trypsin and chymotrypsin;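 also: relative to predicted unfolded state with 0 unfolded-like and 1 meaning tenfold more protease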

| Sequence | protease stability score |
| --- | --- |
| DEEHRHAEEILKDLQKALITGDEHNMMNLLDPHVRVDFDGVEIIGRELWVELFRTLKKELGITRFDIHLHTHDMKIFDGRVTLDTRLHLHYNGRTEERRVIIYVTKVNGRWHIESMEIK | 1.82 |
| DEEHRHAHWLLNVLTKAMITGDESLMEHLLDPNARLIQGEFELVGRERIIDWFHHIRTHEVRIHVEHFDVVNGKAIIFGHVTVDGTVNGQRREFRFDQTYFSSKIDGKWVIESLEME | 1.3 |
| DEEHRKLKKFVRESMEDHRTGDEDRRNELLDPNVRIEIGDKTFHGREDDKKWLEEFGVDHVEIRIRHIDIIGNKAIIDSELRIFVNGRILEFDTIIYAEKYDGRWVHHSVQVR | 0.077 |
| DEEHRLSHEIEKHLEDDLRTGDFHHFIKQVDPNTRVRYGDKRLHGMHAVIWTLEHLGIDVFHLTDSHTFENRVVVHVRLEQGDFTMSVEVHATKVNGRWIVTKINFHHS | 0.023 |
| DEEHRSSHHAVEVQFRVLHTGDFHDLRRQLDPDVKFHIDGVNDHGREVFEERVRELGIKHLLIEDHHVEIQGEWAHLRMKGLMEINGKEIKLHIRYLLLKVNGRWSAHTVSIHLE | 1.36 |
| DEEHRVIHNAVRILLEAIRTGDEETLRRLLDPHTRIEIGDKELHGWKDAIKFERDVWEILGIDHSEIRIKHVRIIGDKIEVEGEIINYVNGKEIVLDTNLIMRKIDGRWVFKSRKVN | 1.23 |
| DEEHTDITRATEHLIDSMETGDEDRLQELFDPNTLMRINGRRHHGREDMREFIRELVEKVKNLKIEIDHIDVVGNKVRLEVTLRVNGQEISTHIIIVKVDGRWIVKRMHIN | 0.667 |
| DEEIEEARHVFEEVIHNIQTGDEDAYETLMDPNVRLQVGEKKFHGRREVKEWLHEIRVRRYEIRPKDSDVIGEKVIVHGRVRIDGHYNGRDIDLEVQVHRIIVKINGRWFVHEVRIG | 1.28 |
| DEEIEMLTKLAELFIRLWLTGNEDILESMADPRVRLEINGREHHGRDIVRKIFEHDRHHMRLESIQLHDRRVYNGRADLHGTQYGEINGKRETYTVRLILVIINGRIETVKVIVE | 1.14 |
| DEEKDEVREIAERIFHNLRTGDEEKLKHLIDPHVRFEYGDKEHHGWEEMVHFLREWRIHHIHIRDIKVYDGVAHVNGEVDGKFNGRRFRSDTWVIIVTINGRVKQISIQIN | 1.33 |
| DEEKDHAQMFLELWRHFLETGDEEFLERLADPHVKSLINGVEHHGREIMYKYLIKFLRRLGVDRVHTEVRIHHMHVINGVAFFDGTLHLNFNGQTYSRRVEIIVYKVNGRWHLHEFRIE | 1.74 |
| DEEKDIIERMSKMITRSWETGNEDWLSELADPDVKFHINGRDHHGMEEMARLWLELVLKLGVKHQTIEHLSIQGDKVHIHSRSDFNGRHMKLEIRVLLVNGKIRSVTVHLHVD | 0.633 |
| DEEKDIMERIADLMLELSETGDEHTYKRMADPNVRLRFNGVDIHGMDNISKYLKEFFERIDHVEFEIKDFRSFDGRYNNRGLLILNVGDKRIIIDITIRVEVVNGRVKERQVDID | 0.749 |
| DEEKDIMNEWWKRIFNVFHTGDEREHDKMLDPNARFDIGDKTLHGMDDFRRFLHRADHISHFTEHHVEVQGEKLVWEGTYDGEFNGVERRFHTHEQNIIINGKVKRVFFQIR | 0.834 |
| DEEKDLTEKIAHEIVHNYMTGDFDRFIELADPNVRFIIGDKIYHGREQLLTVLEHWRQEWRLSHVRLDEFEIQGDKVILHTTMNIKYGDKRIDVETEIKIIIINGRIRDWTIDRR | 1.42 |
| DEEKEDAYRNAELWIKSINTGDEDVLTDLLDPHARIDIGDKKLHGMESFTKLYRDLGFRIKDFHLKDIRIYGEKIEIHGIIHFEQGDKEHNEDTTIILLKVNGKWIIKRLRVN | 1.5 |
| DEEKEDFHHAVELVLRVIKTGDEHTARELMDPRVRIDIDGQDFHGWQHIVHFVKHWRIERYSLKYVEYIDGRIHNTVLLDITVDGQRRNLEVYIIFLKYNGRWILTEVILR | 1.84 |
| DEEKEDIERYNRLYFNASTTGDEDTLKRLADPHVRIHVGDKDQVGMEHLSTRLLELRIEVEFDHRHIEVQGDKVTVDGTLTLHIEIGEKRYERRVDLILHWHKIDGRWLIEQVDML | 1.27 |
| DEEKEDNKHFLKIHREDLHTGNEDSLKRLADPNARIHIGDKDYHGWEFWLTLSRELGVDHMHLIIDHVDLQGEKARIEGELEFTVGDKKHRIKTRLILEKIDGVWVYKSVTIE | 1.04 |
| DEEKEEADEHIRLLIDVMKTGDEDSMRRLIDPNVRIRVDGKEDHGMEKLVHLLRHARYREVRIEHVEHQGEKVIIHYKAWVEIDGQENHKKWHFIVTKVDGKWTLKEVSVH | 2.3 |
| DEEKEEAEHFFHFFFHLLITGDEEQWFRLADPNMRVRVNGVLLHGREIWERLVQEIRVNHMHLDRMEIHVFNGRMDVYIIGHVRRIIGDKEETTTVHIRIVMFKVNGRWVIHAVEEDYR | 1.81 |
| DEEKEEARRVLEIFIRSTRTGNFKENTEQMDPNVRIDINGVELHGREDAIRLAVEARIHRVEIEHVTTIGDKVEVHGHVDGTFNGQRTRTRLYVVIEKVDGRWLISEYRYH | 1.29 |
| DEEKEEEDLVLEILIHMMRTGDEELLDELLDPNARQIVGDKEFIGRELSHWFATFFKNVKVEIKHFRVINGRIHMHVHIQIGDKRHDMRITARKVNGKWVLEESHIR | 1.62 |
| DEEKEEFKIASKLFIDSLRTGNEELLSFLFDPHAKSDVNGKNIHGMEILAETMSRLFERYKGMQIRVDEIRFFDGQIHLHGRVNFNGREHTVIVIINKVNGQWRIQDLQID | 1.11 |
| DEEKEEHEKMIERWLRALETGDEHLLRELIDPNVRLDINGRRTHGREDVLRLFVDLGIDHHDIHDVKIIDGRIDMDTRINVNGREIKIRVIARKFDGRWIVESFRVE | 1.89 |

| Sequence | protease stability score |
| --- | --- |
| DEEKEEIELAIRLTEKMLKTGDEELWRENADPNARFVTENHDDHGREVIVKWVHEMRRKFKNMRLEIEDVRTFNGRLEIHLRLNVNGRDLKINIIVEKVNGRWFLREIEIQ | 1.74 |
| DEEKEEIRQFEETFVEAMKTGDEDVIRHLLDPHVRVDINGQTFHGREIVIEMVSRFPNVQVHIDDLDVQGNWAHSDVQLHQGDKYIRLHIDVTKIDGKWRITFLKFK | 1.45 |
| DEEKEELEKATEEWVHFMRTGDEDSLIKNLDPNVKNIFNGKEEIGREDLSHFIKHMGAKVVRIEDIKTQGDKVIIDTRIEVGDKHFEVTLYFEKINGRWFLHSVEIR | 0.512 |
| DEEKEETEKLAKDILHNIHTGNEEEFLKLADPNTRIVQGDFRTHGRESMHFWMREVRKLFKNVRIHWRLKDVRSFEGHAITHIEVEVSFDGRTDLIRMEIHVIVVNGKIEELIINTR | 0.695 |
| DEEKEEWEELFKEFEHSIHTGDFRVLAKQMDPHVRIIYGEKRVHGREDAHKLMRDTLEKLGVDHMHVEDNHLQGDFIHLQIRRHVNGRTMTVHFLIWKYNGRWYMHSIKIE | 1.43 |
| DEEKEEYNRKAKEFWQRWLTGDEKRLRELADPNVRLDIDGVELVGREEFVHAVHEFLRHIRFKDMKVHRTDNIDGKNESDFEVTGDVNGQDMKSRTHVLILLVNGKIKEVEHRWK | 0.222 |
| DEEKEEYRRAIEDWIKFFITGDFDLLKTLADPNARSEIGNYEFHGMEHISRRIVDIIERFKNMRYSVHSIDFQGDYVILHSYIIYGDKHLHLIVITYKFNGRWRFHSVRVE | 1.26 |
| DEEKEFAEEMTRIWIEFWKTGDEDDLSHMLDPNVRLIIIIGDKHIHMHGRERAIKEIRRLLHEWRIDDEHNEHIRYFNGKVDVRSRIHVTINGREHDHELVVRIFVVDGRVKSVSIEYR | 2.52 |
| DEEKEFAEIYLRRLEELYNTGDEEIEHDLLDPHVRINIGNKHIHGREQYIEHWRKLLIILGIERFTIHVRIKDVRIQGEFAHLDGRLELRVGDKRRTLDVELIILKVNGRWVNKHIHFL | 0.888 |
| DEEKEHAHRFYEEWVKAWRTGDFKHMLDLIDPNTKIVINGQEYHGMEMWSHIVEHLERLHGYRINHERIHHIRNIDGKVDSDVHVRGRYNGRDIDSRMHIHLDVVDGRIKSLEFRSK | 1.55 |
| DEEKEHAKEMLELHLRLWLTGNEDKLHRLADPHVRMTIDGKEFIGREEMIKAIREHLKRLGVDHVRIHWTRLHVVDGQIDLHTHIRLHVDGRTIEIESEIISVVFNGVMKSIEWKFK | 1.38 |
| DEEKEIHEELVRIWNHAVNTGNEELMERLMDPNVRLLYNGVDLIGMEHAREFNKRFDHLKIRRNEIKSFRVQGNKIDSDTHVDVELNINGKTLRVQQDQHWVVLKVDGRWYIHKIEIL | 0.799 |
| DEEKEISELLFRLIFHMLETGDEELSRRLLDPNTRTIWNGRHLHGREASELMRRILHHFVKGATTEIKDLKVQGDWMHFHVTIHIGDKRIRTEIIVHTIDGRIDSMEFRVT | 1.39 |
| DEEKEISKKATEILISILRTGDEDVMREYLDPHVRIDFNGKQLHGMDYLWRLLKHMRLRSLDVHSFHFVDGVIEVDSRSDGEVNGQRTDYHFHFIIEKVNGKWWLHKVKFE | 1.64 |
| DEEKEIVENTTRLYWHLMETGNFDRWMKEADPNTRQDVDGKELHGMELVAHRIRELLEKFKGVRFHVEDIKIINGRSHMDIRIIIGDKHIEAHLILLVVDGRLKHVSLIIR | 1.99 |
| DEEKEKAKEFLHEWFRSLETGDEDLLTKLLDPNARMDINGQRFVGRHDIQRFISELREKIPNMQIDFHDQEMTDVNGVVQVDMRVDIHYGDKSSHHRLHVYVLKINGRWINKHIHVRTK | 1.16 |
| DEEKELADYISHLLVENLKTGDWHSLRRLIDPNARLEYGDKEHHGWKEIYESKRHLDEELGVKHVNINIHRINYQGEKVEIDGEVRIHFNGRTENRKVNIELRIFNGRIKEVIVDIR | 1.17 |
| DEEKELNENLAKIILHMFHTGDEKRWSKMADPHMRANINGVTIHGRELVIKEFLHWRHRLGVKHEEIHHIDIQGDKVRTDSHVDIDGQRVNIILRVVVVNGRLHSEEVEIR | 0.787 |
| DEEKELNRHLAELWLHWWFTGDEEVITEMADPEVRFEVDGRTFHGRETLSRMISEKKRDLGADHERLRDVKVIGDKVHIESVIHVNGRELEVHIIIVVYNGRLKELRVEVK | 1.04 |
| DEEKELSKKLLEVFIKVMRTGDWRAFSERLDPHTRTDVNGVDIHGRENTLELLRRLEEEWGVSRVDVRIHDADHQGDYIKFDGIEIYNGVERRTRMVSEKFNGRWRNKIFILD | 0.238 |
| DEEKEMNRHFLEHLKTAYETGDEDSIIKNIDPHYRIIVGDKDLIGMEHVKKWLHHARIHEIHPRRLEVQGNKITNDIHVVGEVNGVLRSTDQIWYLLKVDGRWLIESIEIK | 1.11 |
| DEEKERMEELLRLWVEAVRTGDEETLHKLMDPDVRIEYGDKDHHGREEMHRMMREWYERVDVINTYHVRRIKIVDGKARVDAELDGTIDGKRVIFREILISSKYNGQWTVTSISIK | 1.43 |
| DEEKERMFEHWEDVLRDWYTGNEDNLRHLFDPHARTDVNGVELHGMDLISEVLRRHLEEIRIKSMHLRELRSVDGRIHEHGELRGRVNGVDVRREVRVHLTVVNGRMKEMRFENI | 0.394 |
| DEEKERSDRLYERFFTAIFTGDEDLIRKLLDPDTRYQIGDKSSHGRDDIYDRIREMRNKVPNLRWDIRHVRIQGEKVHLDVEFNVNGKRDEFHIELDIVNGRLRHIRIEPV | 1.24 |
| DEEKESAERWLHIFLHSMDTGDEDKIRKLLDPNVLNDVGDKVLIGRELAFKWFHHLRFRKVHLRDFRIINGRIEVDIDVRGEINGKEDHFRLEVDLRKINGRWVLHEIRID | 2.81 |
